Experimental data reported in patent US6432922.
pIC50: −log10 of the molar value. “And” between values parts separate entries of the source, which are not always exact repeats. Equal values may be shown once.

Molecular target: Urokinase (Abbokinase), manufactured by Abbott Laboratories (UniProt P00749)
Test: cell-based or functional assay

Substance | pIC50
benzenesulfonyl-D-seryl-azetidyl-argininal, trifluoroacetate salt (peptide) | > 7.00
benzyloxycarbonyl-D-seryl-2-aminobutanoyl-argininal (peptide) | > 7.00
benzyloxycarbonyl-D-seryl-2-norvalyl-argininal (peptide) | < 7.00 and > 6.60
benzyloxycarbonyl-D-seryl-L-3,4-dehydroprolyl-argininal (peptide) | > 7.00
benzyloxycarbonyl-D-seryl-L-allylglycyl-argininal (peptide) | < 7.00 and > 6.60
benzyloxycarbonyl-D-seryl-L-azetidine-2-carbonyl-argininal (peptide) | > 7.00
benzyloxycarbonyl-D-seryl-L-propargylglycyl-argininal (peptide) | > 7.00
benzyloxycarbonyl-D-seryl-L-β-cyanoalanine-argininal (peptide) | > 7.00
benzyloxycarbonyl-D-seryl-pipecolyl-argininal (peptide) | < 7.00 and > 6.60

Molecular target: Purified human plasmin, obtained from Enzyme Research Laboratories, Inc. (human) (UniProt P00747)
Sequence (P00747 97-810 limits assumed): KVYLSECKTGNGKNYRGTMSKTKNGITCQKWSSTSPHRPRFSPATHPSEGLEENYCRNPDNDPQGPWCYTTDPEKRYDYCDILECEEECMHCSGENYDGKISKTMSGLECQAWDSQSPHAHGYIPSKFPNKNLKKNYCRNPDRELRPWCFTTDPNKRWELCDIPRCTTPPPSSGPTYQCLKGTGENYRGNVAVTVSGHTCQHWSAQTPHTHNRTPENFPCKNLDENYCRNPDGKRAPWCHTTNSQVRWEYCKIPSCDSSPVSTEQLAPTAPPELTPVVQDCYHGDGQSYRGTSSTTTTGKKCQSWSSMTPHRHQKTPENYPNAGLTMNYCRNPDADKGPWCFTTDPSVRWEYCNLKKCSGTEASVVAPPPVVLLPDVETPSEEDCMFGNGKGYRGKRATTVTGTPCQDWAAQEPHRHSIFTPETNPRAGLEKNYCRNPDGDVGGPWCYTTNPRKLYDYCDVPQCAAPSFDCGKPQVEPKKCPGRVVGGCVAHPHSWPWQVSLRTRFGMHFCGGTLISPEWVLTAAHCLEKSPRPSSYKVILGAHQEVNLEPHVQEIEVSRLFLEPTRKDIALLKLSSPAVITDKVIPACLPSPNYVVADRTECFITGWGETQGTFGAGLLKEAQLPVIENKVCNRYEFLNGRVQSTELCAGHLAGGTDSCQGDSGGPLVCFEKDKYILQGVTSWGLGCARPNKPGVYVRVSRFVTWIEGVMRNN
Test: cell-based or functional assay

Substance | pIC50
benzenesulfonyl-D-seryl-azetidyl-argininal, trifluoroacetate salt (peptide) | < 6.60 and > 5.60
benzyloxycarbonyl-D-seryl-L-3,4-dehydroprolyl-argininal (peptide) | < 7.00 and > 6.60
benzyloxycarbonyl-D-seryl-L-allylglycyl-argininal (peptide) | < 6.60 and > 5.60
benzyloxycarbonyl-D-seryl-L-azetidine-2-carbonyl-argininal (peptide) | < 6.60 and > 5.60
benzyloxycarbonyl-D-seryl-L-propargylglycyl-argininal (peptide) | < 6.60 and > 5.60
benzyloxycarbonyl-D-seryl-L-β-cyanoalanine-argininal (peptide) | < 6.60 and > 5.60

Molecular target: Human rt-PA (Activase), obtained from Genentech Inc. (human) (UniProt P00750)
Sequence (P00750 36-562 limits assumed): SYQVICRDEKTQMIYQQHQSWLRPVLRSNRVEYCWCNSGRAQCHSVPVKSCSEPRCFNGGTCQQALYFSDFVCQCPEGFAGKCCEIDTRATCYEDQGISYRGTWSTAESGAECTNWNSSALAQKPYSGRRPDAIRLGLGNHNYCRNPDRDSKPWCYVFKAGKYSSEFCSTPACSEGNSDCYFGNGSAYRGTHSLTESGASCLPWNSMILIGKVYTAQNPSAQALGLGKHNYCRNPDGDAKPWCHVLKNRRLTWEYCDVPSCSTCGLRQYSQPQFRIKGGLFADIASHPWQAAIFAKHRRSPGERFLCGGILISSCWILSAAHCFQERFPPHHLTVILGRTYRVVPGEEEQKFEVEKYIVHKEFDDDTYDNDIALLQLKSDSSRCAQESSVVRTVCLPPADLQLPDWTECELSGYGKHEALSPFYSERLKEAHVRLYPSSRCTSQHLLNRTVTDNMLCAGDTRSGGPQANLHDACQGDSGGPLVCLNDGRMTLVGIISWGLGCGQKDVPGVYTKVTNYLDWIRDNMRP
Test: cell-based or functional assay

Substance | pIC50
benzyloxycarbonyl-D-seryl-2-aminobutanoyl-argininal (peptide) | < 5.60
benzyloxycarbonyl-D-seryl-2-norvalyl-argininal (peptide) | < 5.60
benzyloxycarbonyl-D-seryl-L-3,4-dehydroprolyl-argininal (peptide) | < 5.60
benzyloxycarbonyl-D-seryl-L-allylglycyl-argininal (peptide) | < 5.60
benzyloxycarbonyl-D-seryl-L-azetidine-2-carbonyl-argininal (peptide) | < 5.60
benzyloxycarbonyl-D-seryl-L-propargylglycyl-argininal (peptide) | < 5.60
benzyloxycarbonyl-D-seryl-L-β-cyanoalanine-argininal (peptide) | < 5.60
benzyloxycarbonyl-D-seryl-pipecolyl-argininal (peptide) | < 5.60
